T1: EpCAM expressed on human cancer cell lines (H747, HCC827, HCT116) (human (human cancer cell lines), UniProt P16422 24-314)
T1 construct: also called Epithelial cell adhesion molecule; cell expressed EPCAM
T1 sequence: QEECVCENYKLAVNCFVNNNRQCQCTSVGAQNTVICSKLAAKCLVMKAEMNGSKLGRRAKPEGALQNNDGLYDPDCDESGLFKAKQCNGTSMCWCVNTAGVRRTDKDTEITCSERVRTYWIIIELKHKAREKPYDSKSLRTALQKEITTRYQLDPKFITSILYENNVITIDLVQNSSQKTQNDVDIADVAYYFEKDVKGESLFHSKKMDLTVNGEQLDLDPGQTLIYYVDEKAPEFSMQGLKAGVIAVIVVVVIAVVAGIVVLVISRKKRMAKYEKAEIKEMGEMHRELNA

B1: A49-F4-TriNKET-MT110 (other)
heavy 1: EVQLLEQSGAELVRPGTSVKISCKASGYAFTNYWLGWVKQRPGHGLEWIGDIFPGSGNIHYNEKFKGKATLTADKSSSTAYMQLSSLTFEDSAVYFCARLRNWDEPMDYWGQGTTVTVSSASTKGPSVFPLAPSSKSTSGGTAALGCLVKDYFPEPVTVSWNSGALTSGVHTFPAVLQSSGLYSLSSVVTVPSSSLGTQTYICNVNHKPSNTKVDKKVEPKSCDKTHTCPPCPAPELLGGPSVFLFPPKPKDTLMISRTPEVTCVVVDVSHEDPEVKFNWYVDGVEVHNAKTKPREEQYNSTYRVVSVLTVLHQDWLNGKEYKCKVSNKALPAPIEKTISKAKGQPREPRVYTLPPCRDELTKNQVSLTCLVKGFYPSDIAVEWESNGQPENNYKTTPPVLVSDGSFTLYSKLTVDKSRWQQGNVFSCSVMHEALHNHYTQKSLSLSPGSGSGGGGSDIQMTQSPSSVSASVGDRVTITCRASQGISSWLAWYQQKPGKAPKLLIYAASSLQSGVPSRFSGSGSGTDFTLTISSLQPEDFATYYCQQGVSFPRTFGCGTKVEIKGGGGSGGGGSGGGGSGGGGSEVQLVESGGGLVKPGGSLRLSCAASGFTFSSYSMNWVRQAPGKCLEWVSSISSSSSYIYYADSVKGRFTISRDNAKNSLYLQMNSLRAEDTAVYYCARGAPMGAAAGWFDPWGQGTLVTVSS
heavy 2: EVQLLEQSGAELVRPGTSVKISCKASGYAFTNYWLGWVKQRPGHGLEWIGDIFPGSGNIHYNEKFKGKATLTADKSSSTAYMQLSSLTFEDSAVYFCARLRNWDEPMDYWGQGTTVTVSSASTKGPSVFPLAPSSKSTSGGTAALGCLVKDYFPEPVTVSWNSGALTSGVHTFPAVLQSSGLYSLSSVVTVPSSSLGTQTYICNVNHKPSNTKVDKKVEPKSCDKTHTCPPCPAPELLGGPSVFLFPPKPKDTLMISRTPEVTCVVVDVSHEDPEVKFNWYVDGVEVHNAKTKPREEQYNSTYRVVSVLTVLHQDWLNGKEYKCKVSNKALPAPIEKTISKAKGQPREPQVCTLPPSRDELTENQVSLTCLVKGFYPSDIAVEWESNGQPENNYKTTPPVLDSDGSFFLYSWLTVDKSRWQQGNVFSCSVMHEALHNHYTQKSLSLSPG
light: ELVMTQSPSSLTVTAGEKVTMSCKSSQSLLNSGNQKNYLTWYQQKPGQPPKLLIYWASTRESGVPDRFTGSGSGTDFTLTISSVQAEDLAVYYCQNDYSYPLTFGAGTKLEIKGRTVAAPSVFIFPPSDEQLKSGTASVVCLLNNFYPREAKVQWKVDNALQSGNSQESVTEQDSKDSTYSLSSTLTLSKADYEKHKVYACEVTHQGLSSPVTKSFNRGEC
notes: also called EPCAM-targeting F4-TriNKET
B2: parental monoclonal antibody (mAb) targeting EPCAM (clone MT110) (antibody, V domains shown)
VH: VQLLEQSGAELVRPGTSVKISCKASGYAFTNYWLGWVKQRPGHGLEWIGDIFPGSGNIHYNEKFKGKATLTADKSSSTAYMQLSSLTFEDSAVYFCARLRNWDEPMDYWGQGTTVTVSS
VL: ELVMTQSPSSLTVTAGEKVTMSCKSSQSLLNSGNQKNYLTWYQQKPGQPPKLLIYWASTRESGVPDRFTGSGSGTDFTLTISSVQAEDLAVYYCQNDYSYPLTFGAGTKLEIKG
notes: detected with an anti-human IgG secondary antibody; also called parental mAb; Solitomab (MT110)

Biological target: T1, EpCAM expressed on human cancer cell …
Test: flow cytometry on H747 cells, MFI fold over background
Description: Human cancer cell lines expressing EPCAM were used to assess tumor antigen binding of TriNKETs derived from EPCAM targeting clone MT110 in F4 and F3′ formats. The human cell lines H747, HCC827 and HCT116 were used to assess binding of TriNKETs and mAb to cell expressed EPCAM. TriNKETs or mAb were diluted and incubated with the respective cells. Binding was detected using a fluorophore conjugated anti-human IgG secondary antibody. Cells were analyzed by flow cytometry, binding MFI to cell expressed EPCAM was normalized to human recombinant IgG1 stained controls to obtain fold over background values.

Row | binding result | Binder
1 | binds | B1
2 | binds | B2
